# Measurements from patent publication US12404345B2, “Humanized antibodies against iRHOM2” (SCIRHOM GMBH, priority 2021, dated 2025).
# Positions count from the first letter of the chain named.
# T1: mouse iRhom2 (Mus musculus, UniProt Q80WQ6)
# T1 construct: MEF-DKO-miR2-FL-WT-T7 cells stably expressing mouse iRhom2 full length wild type; expressed in transfected cells; host or cells: immortalized iRhom1/2-/- DKO mouse embryonic fibroblasts, pMSCV retroviral infection
# T1 sequence (Q80WQ6 1-827): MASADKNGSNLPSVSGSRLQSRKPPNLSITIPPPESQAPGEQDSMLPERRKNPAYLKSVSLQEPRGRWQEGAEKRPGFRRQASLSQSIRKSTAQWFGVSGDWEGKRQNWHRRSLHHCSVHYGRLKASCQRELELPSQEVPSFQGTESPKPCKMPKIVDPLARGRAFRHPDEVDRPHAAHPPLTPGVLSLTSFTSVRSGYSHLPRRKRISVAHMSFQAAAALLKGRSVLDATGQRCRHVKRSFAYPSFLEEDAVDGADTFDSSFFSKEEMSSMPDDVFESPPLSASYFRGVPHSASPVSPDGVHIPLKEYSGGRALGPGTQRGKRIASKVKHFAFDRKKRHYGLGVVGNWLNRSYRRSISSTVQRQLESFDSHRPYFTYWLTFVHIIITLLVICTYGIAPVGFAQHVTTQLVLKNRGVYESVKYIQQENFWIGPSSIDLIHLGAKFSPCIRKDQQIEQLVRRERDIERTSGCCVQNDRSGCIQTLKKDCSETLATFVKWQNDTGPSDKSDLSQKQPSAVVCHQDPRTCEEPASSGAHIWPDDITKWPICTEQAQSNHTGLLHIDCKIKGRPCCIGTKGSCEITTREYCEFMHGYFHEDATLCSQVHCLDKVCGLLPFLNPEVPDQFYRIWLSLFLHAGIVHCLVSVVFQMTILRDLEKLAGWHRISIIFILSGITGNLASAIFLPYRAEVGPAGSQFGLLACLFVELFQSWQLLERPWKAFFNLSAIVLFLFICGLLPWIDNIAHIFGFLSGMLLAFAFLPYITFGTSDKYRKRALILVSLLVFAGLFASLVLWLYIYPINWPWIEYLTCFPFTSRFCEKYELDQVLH
# B1: 16-B-03: humanized antibody binding human iRhom2; HCVD SEQ ID NO 1, LCVD SEQ ID NO 5 (antibody, V domains shown)
# VH: QVTLRESGPALVKPTQTLTLTCTFSGFSLSTFALGVGWIRQPPGKALEWLAHIWWDDDKYYNPALKSRLTISKDTSKNQVVLTITNMDPVDTATYYCARITTYYYGMDYWGQGTLVTVSS
# VL: EIVMTQSPDFQSVTPKEKVTITCRASQSIGNHLHWYQQKPDASPKLLIKYASQSISGVPSRFSGSGSGTDFTLTINSLEAEDAATYFCQQSYQWPLTFGQGTKLEIK
# modifications: antibody sequences
# B2: 16-B-07: humanized antibody binding human iRhom2; HCVD SEQ ID NO 17, LCVD SEQ ID NO 21 (antibody, V domains shown)
# VH: B1 VH with D57E
# VL: B1 VL
# modifications: antibody sequences
# B3: 16-B-05: humanized antibody binding human iRhom2; HCVD SEQ ID NO 9, LCVD SEQ ID NO 13 (antibody, V domains shown)
# VH: B1 VH with D57E
# VL: B1 VL with Q93N
# modifications: antibody sequences
# B4: 23-B-04: humanized antibody binding human iRhom2; HCVD SEQ ID NO 25, LCVD SEQ ID NO 29 (antibody, V domains shown)
# VH: QVTLRESGPALVKPTQTLTLTCTFSGFSLSTFGMGVGWIRQPPGKALEWLAHIWWDDEKYYNSALKSRLTISKDTSKNQVVLTITNMDPVDTATYYCARISNYGSNYWYFNVWGQGTLVTVSS
# VL: AIQLTQSPSSLSASVGDRVTITCRASSSVSYMYWYQQKPGKAPKVLIYDTSNLASGVPSRFSGSGSGTDYTLTISSLQPEDFATYYCQQWNAYPLTFGQGTKLEIK
# modifications: antibody sequences
# B5: 42-B-04: humanized antibody binding human iRhom2; HCVD SEQ ID NO 41, LCVD SEQ ID NO 45 (antibody, V domains shown)
# VH: B4 VH with M34R, S101Q, N111D
# VL: B4 VL with S28R, V29I, Y33F
# modifications: antibody sequences
# B6: 42-B-02: humanized antibody binding human iRhom2; HCVD SEQ ID NO 33, LCVD SEQ ID NO 37 (antibody, V domains shown)
# VH: B4 VH with M34R, S101Q, N111D
# VL: B4 VL with S28R, V29I, Y33F, A92S
# modifications: antibody sequences
# Target: T1, mouse iRhom2
# Test: FACS mouse cross-reactivity on MEF-DKO-miR2-FL-WT-T7 cells
# Assay type: binding
# Conditions: antibody at 3 μg/ml
# Source text: Next, immortalized iRhom1/2−/− DKO MEFs were reconstituted with a tagged form of human iRhom2 to test target recognition of humanized antibodies of the invention. Additionally, iRhom1/2−/− DKO MEFs stably expressing a tagged form of mouse iRhom2 were generated in order to determine cross-reactivity of the humanized antibodies 16-B-03, 16-B-05, 16-B-07, 23-B-04, 42-B-02 and 42-B-04 of the invention with the mouse orthologue of iRhom2.
# In brief, on day 1, Phoenix-ECO cells (American Type Culture Collection, USA) were seeded on 6-well tissue culture plates (Greiner, Germany) in standard growth medium at 8×10^5 cells per well and kept overnight at 37° C., 5% CO2. On day 2, the medium was replaced by fresh medium supplemented with chloroquine (Sigma-Aldrich, USA) at a final concentration of 25 μM. Applying the calcium phosphate method, cells were transfected with 2 μg/ml of pMSCV (Clontech, USA) empty vector, pMSCV-hiR2-FL-WT-T7 encoding human iRhom2 full length wild type C-terminally tagged with 3 consecutive copies of the T7 epitope (MASMTGGQQMG) or pMSCV-miR2-FL-WT-T7 encoding mouse iRhom2 full length wild type C-terminally tagged with 3 consecutive copies of the T7 epitope, and were kept at 37° C., 5% CO2. After 7 hours, the transfections were stopped by replacing cell supernatants with standard growth medium lacking chloroquine, and cells were incubated at 37° C., 5% CO2 to allow virus production overnight. In parallel, immortalized iRhom1/2−/− DKO MEFs as target cells for retroviral infection were seeded on 6-well tissue culture plates (Greiner, Germany) in standard growth medium at 1×10^5 cells per well and were also kept overnight at 37° C., 5% CO2. On day 3, the supernatants of Phoenix-ECO cells releasing pMSCV, pMSCV-hiR2-FL-WT-T7 or pMSCV-miR2-FL-WT-T7 ecotrophic virus were collected, filtered with 0.45 μm CA filters, and supplemented with 4 μg/ml of polybrene (Sigma-Aldrich, USA). Upon removal of medium from the immortalized iRhom1/2−/− DKO MEFs, the virus containing supernatants were added to the target cells for 4 hours at 37° C., 5% CO2 for first infection. Simultaneously, Phoenix-ECO cells were re-incubated with fresh medium, which, after another 4 hours, was filtered and used for the second infection of the respective target cell populations, again in the presence of 4 μg/ml of polybrene. Likewise, a third, but overnight infection cycle was performed. On day 4, virus containing cell supernatants were replaced by fresh standard growth medium. From day 5 onwards, cells were grown in the presence of 2 mg/ml of geneticin (G418, Thermo Fisher Scientific, USA) for the selection of immortalized MEF-DKO-EV control cells stably infected with pMSCV empty vector, MEF-DKO-hiR2-FL-WT-T7 cells stably expressing human iRhom2 full length wild type C-terminally tagged with 3 consecutive copies of the T7 epitope, and MEF-DKO-miR2-FL-WT-T7 cells stably expressing mouse iRhom2 full length wild type C-terminally tagged with 3 consecutive copies of the T7 epitope. Upon propagation, cells were stocked for future usage.
# In brief, immortalized MEF-DKO-EV control cells, MEF-DKO-hiR2-FL-WT-T7 cells and MEF-DKO-miR2-FL-WT-T7 cells were harvested with 10 mM EDTA in PBS, washed and resuspended in FACS buffer (PBS, 3% FBS, 0.05% sodium azide), and seeded in Nunc U-bottom 96-well plates (Thermo Fisher Scientific, USA) at approximately 3×10^5 cells per well. To pellet cells and remove supernatants, the plates were centrifuged at 1,500 rpm and 4° C. for 3 minutes. For primary staining, cells were resuspended in 100 μl per well of either FACS buffer alone (controls), mouse monoclonal anti-T7 IgG (Merck Millipore, USA) at 3 μg/ml FACS buffer or the humanized antibodies 16-B-03, 16-B-05, 16-B-07, 23-B-04, 42-B-02 and 42-B-04 of the invention also at 3 μg/ml FACS buffer and incubated on ice for 1 hour. Afterwards, plates were centrifuged at 1,500 rpm and 4° C. for 3 minutes and washed twice with 200 μl per well of FACS buffer. […]
row,Molecule,binding to mouse iRhom2 on MEF-DKO-miR2-FL-WT-T7 cells (mouse cross-reactivity)
1,B1,no significant binding
2,B2,none of these humanized antibodies of the invention are cross-reactive
3,B3,none of these humanized antibodies of the invention are cross-reactive
4,B4,none of these humanized antibodies of the invention are cross-reactive
5,B5,none of these humanized antibodies of the invention are cross-reactive
6,B6,none of these humanized antibodies of the invention are cross-reactive
